Key:
[1] = molecular target: T1, human PD-L1 (human, UniProt Q9NZQ7 19-290); assay: flow cytometry binding to CHOK1/hPDL1 cells; supernatant as % of total reaction volume
T1 construct: whole, on cells; also called hPD-L1; PD-L1 on CHO-K1/hPD-L1 cells
Description: (§1) In another experiment, the CHO-K1/hPD-L1 cells were incubated with increasing amounts of the neat culture supernatant of the Jurkat parental or Jurkat/hPD-1-Fc-OX40L cells produced as discussed in Example 2. Binding was detected using flow cytometry and the MFI was calculated and plotted as a function of the amount of the neat culture supernatant of Jurkat parental or Jurkat/hPD-1-Fc-OX40L cells. […] Further, the CHO-K1/hOX40 cells were incubated with increasing amounts of the neat culture supernatant of the Jurkat parental or Jurkat/hPD-1-Fc-OX40L cells produced as discussed in Example 2. Binding was detected using flow cytometry and the MFI was calculated and plotted as a function of the amount of the neat culture supernatant of Jurkat parental or Jurkat/hPD-1-Fc-OX40L cells.

[2] = molecular target: T2, human OX40 (human, UniProt P43489 29-277); assay: flow cytometry binding to CHOK1/hOX40 cells; supernatant as % of total reaction volume
T2 construct: whole, on cells; also called hOX40; OX40 on CHO-K1/hOX40 cells
T2 sequence (looked up): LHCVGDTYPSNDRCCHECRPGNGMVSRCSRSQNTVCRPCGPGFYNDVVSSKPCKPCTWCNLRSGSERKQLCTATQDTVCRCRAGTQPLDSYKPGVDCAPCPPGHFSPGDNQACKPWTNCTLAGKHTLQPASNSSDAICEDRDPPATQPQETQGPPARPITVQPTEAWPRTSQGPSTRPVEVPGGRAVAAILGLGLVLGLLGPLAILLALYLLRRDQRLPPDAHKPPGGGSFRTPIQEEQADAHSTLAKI
Description: as §1

[3] = molecular target: anti-human PD-1 antibody; assay: MSD dual binding assay; Coat: anti-hPD1, Detect: anti-hOX40L; 3-fold dilution series drawn as bars
Description: Concentrated, de-salted culture supernatant was prepared as follows: 40 million Jurkat parental cells, Jurkat cells expressing human PD-1-Fc-4-1BBL chimeric protein (Jurkat/hPD-1-Fc-4-1BBL), Jurkat cells expressing human PD-1-Fc-OX40L chimeric protein (Jurkat/hPD-1-Fc-OX40L), or Jurkat cells expressing human CSF1R-Fc-CD40L chimeric protein (Jurkat/hCSF1R-Fc-CD40L) were cultured in 60 mL of media for 48 hours. After this, the media were harvested and concentrated 50-75× using AMICON-15 50K columns. Concentrated supernatant was desalted over a ZEBA desalting column or directly dialyzed in PBS and used in experiments. The resulting supernatant was also termed “neat” supernatant.
The PD-1-Fc-OX40L chimeric protein harbors the extracellular domain of PD-1 protein domain at or near the N-terminus and the extracellular domain of OX40 Ligand (OX40L) protein domain at or near the C-terminus. To understand whether the extracellular domains of PD-1 and OX40L can simultaneously bind to respective antibodies, an anti-human PD-1 antibody was coated on a plate. Three-fold serial dilutions neat culture supernatants of Jurkat parental cells or Jurkat/hPD-1-Fc-OX40L cells were added to the plate. […] The plate was incubated to allow capture of any protein by the plate-bound anti-human PD-1 antibody. […] Binding was detected using the MSD platform.

[4] = molecular target: T3, universal-heterologous chimeric protein specific anti-Fc antibody; assay: sandwich ELISA: capture by anti-Fc antibody, detection by biotinylated anti-human OX40L antibody; Abs450nm against log[Agonist], nM, nM is from the x axis
[5] = molecular target: T3, universal-heterologous chimeric protein …; assay: sandwich ELISA: capture by anti-Fc antibody, detection by biotinylated anti-human OX40L antibody; concentrated culture media, the protein concentration in it is not given so the x values are nominal; the fitted value lies beyond the highest point shown (log about 2.8), nM is from the x axis

T1 sequence (Q9NZQ7 19-290): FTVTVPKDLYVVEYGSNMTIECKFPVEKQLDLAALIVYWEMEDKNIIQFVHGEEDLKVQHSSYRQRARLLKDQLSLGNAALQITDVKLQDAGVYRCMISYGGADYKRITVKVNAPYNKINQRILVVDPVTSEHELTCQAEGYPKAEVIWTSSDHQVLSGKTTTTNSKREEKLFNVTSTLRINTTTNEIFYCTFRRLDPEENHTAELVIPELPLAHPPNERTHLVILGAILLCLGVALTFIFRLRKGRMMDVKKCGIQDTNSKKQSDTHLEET

binding result [1]: binds
binding result [2]: binds
EC50 (read off the curve) [3]: ~0.08 µg/mL
EC50 [4]: 37.3 nM
EC50 [5]: 2690 nM
B1: human PD-1-Fc-OX40L heterologous chimeric protein (Fc fusion)
chain: LDSPDRPWNPPTFSPALLVVTEGDNATFTCSFSNTSESFVLNWYRMSPSNQTDKLAAFPEDRSQPGQDCRFRVTQLPNGRDFHMSVVRARRNDSGTYLCGAISLAPKAQIKESLRAELRVTERRAEVPTAHPSPSPRPAGQFQSKYGPPCPPCPAPEFLGGPSVFLFPPKPKDQLMISRTPEVTCVVVDVSQEDPEVQFNWYVDGVEVHNAKTKPREEQFNSTYRVVSVLTVLHQDWLSGKEYKCKVSSKGLPSSIEKTISNATGQPREPQVYTLPPSQEEMTKNQVSLTCLVKGFYPSDIAVEWESNGQPENNYKTTPPVLDSDGSFFLYSRLTVDKSRWQEGNVFSCSVLHEALHNHYTQKSLSLSLGKIEGRMDQVSHRYPRIQSIKVQFTEYKKEKGFILTSQKEDEIMKVQNNSVIINCDGFYLISLKGYFSQEVNISLHYQKDEEPLFQLKKVRSVNSLMVASLTYKDKVYLNVTTDNTSLDDFHVNGGELILIHQNPGEFCVL
notes: Tested as secreted protein in Jurkat supernatant and as purified protein; also called hPD-1-Fc-OX40L; hPD1-Fc-OX40L

Source: US20220259281A1 (SHATTUCK LABS, published 2022)
